{
  "source": "paper PMC2172978",
  "about": "(The Journal of Cell Biology, 2003)",
  "binders": {"B1": {"name": "Ras2 protein purified from the insect cells (natural protein, budding yeast, UniProt P01120 1-322, looked up)", "chain": "MPLNKSNIREYKLVVVGGGGVGKSALTIQLTQSHFVDEYDPTIEDSYRKQVVIDDEVSILDILDTAGQEEYSAMREQYMRNGEGFLLVYSITSKSSLDELMTYYQQILRVKDTDYVPIVVVGNKSDLENEKQVSYQDGLNMAKQMNAPFLETSAKQAINVEEAFYTLARLVRDEGGKYNKTLTENDNSKQTSQDTKGSGANSVPRNSGGHRKMSNAANGKNVNSSTTVVNARNASIESKTGLAGNQATNGKTQTDRTNIDNSTGQAGQANAQSANTVNNRVNNNSKAGQVSNAKQARKQQAAPGGNTSEASKSGSGGCCIIS"}},
  "target": "T1, flag–Lte1 (budding yeast, UniProt P07866 1-1435)",
  "T1 sequence (looked up)": "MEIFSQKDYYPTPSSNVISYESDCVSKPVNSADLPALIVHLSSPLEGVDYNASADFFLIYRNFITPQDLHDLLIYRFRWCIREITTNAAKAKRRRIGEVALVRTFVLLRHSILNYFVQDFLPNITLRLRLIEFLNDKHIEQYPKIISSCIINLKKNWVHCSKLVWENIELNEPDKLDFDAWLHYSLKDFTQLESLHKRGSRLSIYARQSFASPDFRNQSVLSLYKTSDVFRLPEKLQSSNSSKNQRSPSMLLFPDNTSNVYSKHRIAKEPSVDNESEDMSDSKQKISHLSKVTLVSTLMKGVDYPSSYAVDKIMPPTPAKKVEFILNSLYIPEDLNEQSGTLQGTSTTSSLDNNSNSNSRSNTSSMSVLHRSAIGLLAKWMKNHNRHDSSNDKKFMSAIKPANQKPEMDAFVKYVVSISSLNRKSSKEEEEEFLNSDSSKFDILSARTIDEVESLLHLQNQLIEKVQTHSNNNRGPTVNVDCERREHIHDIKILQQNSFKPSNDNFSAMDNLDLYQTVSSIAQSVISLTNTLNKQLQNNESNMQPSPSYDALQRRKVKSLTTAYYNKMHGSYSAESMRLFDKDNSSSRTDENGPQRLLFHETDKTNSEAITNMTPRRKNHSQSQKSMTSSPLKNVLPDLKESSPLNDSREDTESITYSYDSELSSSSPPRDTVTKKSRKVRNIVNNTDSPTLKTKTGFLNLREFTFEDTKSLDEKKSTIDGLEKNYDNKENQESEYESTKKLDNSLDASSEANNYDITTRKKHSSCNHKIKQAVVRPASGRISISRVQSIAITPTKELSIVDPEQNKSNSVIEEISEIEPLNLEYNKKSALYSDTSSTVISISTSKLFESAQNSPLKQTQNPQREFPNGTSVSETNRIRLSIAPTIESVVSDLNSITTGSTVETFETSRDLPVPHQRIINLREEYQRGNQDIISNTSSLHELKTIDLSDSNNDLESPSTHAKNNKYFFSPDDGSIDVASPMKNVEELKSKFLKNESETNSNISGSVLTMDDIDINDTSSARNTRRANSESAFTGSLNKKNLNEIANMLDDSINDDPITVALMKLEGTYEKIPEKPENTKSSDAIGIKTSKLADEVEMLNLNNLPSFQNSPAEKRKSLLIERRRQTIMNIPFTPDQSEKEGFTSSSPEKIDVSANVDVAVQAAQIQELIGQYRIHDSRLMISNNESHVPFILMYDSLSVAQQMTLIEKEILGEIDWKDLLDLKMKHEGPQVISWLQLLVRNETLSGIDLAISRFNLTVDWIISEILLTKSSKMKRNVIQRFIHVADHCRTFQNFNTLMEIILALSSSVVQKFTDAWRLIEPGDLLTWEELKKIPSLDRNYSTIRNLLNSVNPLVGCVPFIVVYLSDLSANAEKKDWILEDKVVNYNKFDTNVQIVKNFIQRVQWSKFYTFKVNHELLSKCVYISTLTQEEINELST",
  "assay": "pull-down",
  "data": [
    {"binder": "B1", "values": [
      {"measurement": "binding result", "result": "binds"}
    ]}
  ]
}
